Source: PMC10699557 (2023)
Numbered stars: 1 amine (or outer) side, 2 acyl side, 3 side chain; on linkers, the order of the positions; unused ones are H or OH. Bridge positions count the residues as written; N and C are the ends. Primed or numbered codes have the meaning given here. Ends that are not written are not given here. DVP = divinylpyrimidine, c1nc(CC[*:1])cc(CC[*:2])n1; DVT″ = divinyltriazine

Tests used:
HumRadA22 [1] = test: ITC
HumRadA22 [2] = test: FP
HumRadA22 [3] = test: ITC; remark: listed apart in the source

| Binder | Kd (HumRadA22 [1]) [nM] | Kd (HumRadA22 [2]) [nM] | Kd (HumRadA22 [3]) [nM] |
| --- | --- | --- | --- |
| VNSSAFSGFSTASGKKLNVSTEALQKAVKLFSDIENIS [BRC8-2 template] | 4 |  |  |
| GSVNSSAFSGFSTASGKKLNVSCEALQKACKLFSDI (linker 23-30 via DVT″) [SP2, tag-free, stapled with DVT] | 17 |  |  |
| GCSGFSTASGKKLNVSTQACQKAVKLFSG (linker 2-20 via DVP (inferred)) [SP30, tag-free, stapled with DVP] | 26 | 13 |  |
| GFSGFSTASGKKLNVSCQALQKACKLFSG (linker 17-24 via DVP) [SP24, tag-free, stapled with DVP] | 21 | 13 |  |
| RRRRRRRRRGCSGFSTASGKKLNVSTQACQKAVKLFSG (stapled (linker not stated for SP31)) [SP31] |  |  | 44 |
